± gives the standard deviation.
Assay: protein stability index of a GFP-peptide fusion (GPS, HEK-293T) (PSI 1-6); higher = more stable
[1] = treatment: DMSO, c terminus: a fixed tail appended
[2] = treatment: MLN4924 1 uM, 8 h, c terminus: a fixed tail appended
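Also: 24-mer peptide tiles fused after GFP, lentivirally expressed, FACS-sorted into six equal bins by GFP/DsRed ratio, decoded by Illumina sequencing, PSI is the read-weighted mean bin number.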

Row | Sequence | protein stability index [1] | protein stability index [2] | protein stability index (treatment: DMSO, c terminus: native) | protein stability index (treatment: MLN4924 1 uM, 8 h, c terminus: native)
1 | DYLCISFEYSTIKCRDLSALMHEL [BTBD10] | 2.5 ± 1.6 | 2.73 ± 1 | – | –
2 | RVAEVSRVRVELQEQNGRLQAELA [LRRC45] | 4.11 ± 0.3 | 4.19 ± 0.13 | – | –
3 | CFSVSMLAGPNDRSDVEKGGKIIM [UFD1] | 2.92 ± 0.48 | 3.2 ± 0.52 | – | –
4 | PTTRNYPELNNNQYNRSSNSNGGN [CDC14A] | 4.654 ± 0.022 | 4.79 ± 0.1 | – | –
5 | EMMSQALKATFSGFTKEQQRLGIP [ETS1] | 2.35 ± 0.28 | 2.49 ± 0.2 | – | –
6 | WEKVGSGGFGQVYKVRHVHWKTWL [RIPK4] | – | 2.24 ± 0.21 | – | –
7 | QNFKNRESYPEDTVFYIPEDHKPG [DLC1] | 4.63 ± 0.087 | 4.53 ± 0.44 | – | –
8 | DPERRPSAMALVKHSVLLSASRKS [WEE1] | 4.15 ± 0.3 | 4.05 ± 0.36 | – | –
9 | YLSQTDGAGDWREKEAKDLTELVQ [FUT8] | 4.52 ± 0.27 | 4.7 ± 0.29 | – | –
10 | AISSPTVSRLTDTTKFTGSHKERF [TPPP] | 4.17 ± 0.26 | 4.29 ± 0.12 | – | –
11 | HDHLTLSVSRPEGRSWPSAPDDSK [PDLIM4] | 5.15 ± 0.093 | 5.06 ± 0.072 | – | –
12 | VDAGAEPGRSRMISQEEFARQLQL [LPCAT4] | 4.52 ± 0.27 | 4.5 ± 0.15 | – | –
13 | KKKKIGFYFEVCGMMVESVNAKTL [PCDHGA10] | 2.28 ± 0.68 | 2.18 ± 0.38 | – | –
14 | PDLRSLFSRAGISEAQLTDAETSK [WAS] | 5.03 ± 0.28 | 5 ± 0.27 | – | –
15 | RTLPAFQVPYPPRQLLRDFQSRLP [P3H4] | 2.76 ± 0.2 | 2.92 ± 0.54 | – | –
16 | ECGKRFLRSSDLYRHQRLHTGERP [ZNF449] | 3.08 ± 0.26 | 3.22 ± 0.24 | – | –
17 | YPRYPDIHDLDLTLLNPRMIVDVT [CLCN6] | 2.48 ± 0.14 | 2.54 ± 0.22 | – | –
18 | HGRARIARLMLESEYRSDIINAKS [ASB7] | 3.05 ± 0.3 | 3.18 ± 0.23 | – | –
19 | LVYDVEVKSHLLDYVMTTLLFSDK [TRIP13] | 2.9 ± 0.45 | 2.92 ± 0.47 | – | –
20 | FSDIPSPYLRGTIKMMQAVRQAFQ [GFOD1] | 2.38 ± 0.2 | 2.17 ± 0.17 | – | –
21 | AIDLNKKGKDNKHPMYRRLVHSAV [ZMYND11] | 2.46 ± 0.41 | 2.92 ± 0.38 | – | –
22 | LSLLVMVISPVIQLQPTFTPMRVA [NSDHL] | 3.08 ± 0.32 | 3.23 ± 0.087 | – | –
23 | FDETSSATTISTSEDGSYGTDVTR [KMT2E] | 5.34 ± 0.24 | 5.49 ± 0.17 | – | –

Row | Sequence | protein stability index [1] | protein stability index [2] | protein stability index (treatment: DMSO, c terminus: native) | protein stability index (treatment: MLN4924 1 uM, 8 h, c terminus: native)
24 | ESTIVELGSIFQQLAHMVKEQEET [STX5] | 2.4 ± 0.7 | 3.25 ± 0.094 | – | –
25 | AFTMEQVRTLEGVFQHHQYLSPLE [VENTX] | 2.83 ± 0.16 | 2.28 ± 0.23 | – | –
26 | GSSSSSSSSINSPDRASGPEGSLS [FAM104A] | 5.5 ± 0.22 | 5.45 ± 0.2 | – | –
27 | VNLPISFFRKLLDCCQVSAPNRFF [NLN] | – | 2.62 ± 0.6 | – | –
28 | RRLLEGEDAHLTQYKKEPVTTRQV [KRT17] | 4.56 ± 0.25 | 4.66 ± 0.18 | – | –
29 | CSRTTGYQILTLEKDQEQVVMNLD [GMCL1] | 3.6 ± 0.52 | 3.43 ± 0.34 | – | –
30 | GGAGREDPGLWSRLCRLAGASSPA [ZSWIM9] | 3.12 ± 0.17 | 2.92 ± 0.36 | – | –
31 | GKDAKTTNGHGGEAAEGKSLGSAL [TRIM29] | 5.36 ± 0.14 | 5.27 ± 0.19 | – | –
32 | TPAITVSNSCPAELPNIKREISET [TFE3] | 5.16 ± 0.35 | 4.86 ± 0.22 | – | –
33 | NESTVCLMSYERRQILHLITMMAL [TENT5D] | 2.3 ± 0.47 | 2.1 ± 0.2 | – | –
34 | SPLYADPYTPPATSHRRVTDVRGL [PLEKHN1] | 3.76 ± 0.35 | 3.63 ± 0.35 | – | –
35 | EVGPQEINKEELEGNSMRCGRKLA [GMCL1] | 4.75 ± 0.48 | 4.76 ± 0.3 | – | –
36 | EWLLDAPELPEGHLEDWLEKRAKR [ZMAT5] | 4.95 ± 0.52 | 4.79 ± 0.15 | – | –
37 | LANHTGYIKVDWQRVEKDMKKAKE [FUNDC2] | 4.11 ± 0.21 | 4.08 ± 0.19 | – | –
38 | DAMQLNDKWQGLCWPMMDFLRCVT [CMTM3] | 2.22 ± 0.38 | 2.26 ± 0.14 | – | –
39 | KYKKAVGLKLKQEKKEAYLKLKQG [WDR88] | 2.98 ± 0.87 | 3.58 ± 0.27 | – | –
40 | RVWLKRDSGQYWPSIYHTMASPCS [WDFY1] | 2.06 ± 0.27 | 2.16 ± 0.21 | – | –
41 | HPLAYGMVGPLAQDPQSPMAGLRW [POMT2] | 2.85 ± 0.39 | 2.77 ± 0.18 | – | –
42 | SIESIKWMIEEKATITSRGSSLSG [LURAP1L] | 3.1 ± 0.2 | 3.39 ± 0.41 | – | –
43 | FKKQIWLLFEYPESSSPARGIAIV [KCNA4] | 2.74 ± 0.17 | 2.42 ± 0.3 | – | –
44 | VVNSHSLSLLGKLTISAAFNIVYI [SLC22A15] | 3.07 ± 0.43 | 3.09 ± 0.64 | – | –
45 | EDGKRCVAVDYCASENHGCEHECV [MATN2] | 4.92 ± 0.14 | 4.88 ± 0.7 | – | –
46 | PSTICFGQGAARGFKSNKKKTKQC [ZNF511] | 4.14 ± 0.83 | 3.84 ± 0.068 | – | –

Row | Sequence | protein stability index [1] | protein stability index [2] | protein stability index (treatment: DMSO, c terminus: native) | protein stability index (treatment: MLN4924 1 uM, 8 h, c terminus: native)
47 | TRDLAGLRQFFKQLPSPPFLPAAG [CEBPD] | 2.56 ± 0.28 | 2.44 ± 0.048 | – | –
48 | VTFGNKQKVLGKALSLIRFPLMTI [BTBD1] | 2.4 ± 0.041 | 2.4 ± 0.75 | – | –
49 | YDDDIDDEDEEEEDADCYDDDDSG [UBE2R2] | 5.58 ± 0.11 | 5.61 ± 0.24 | – | –
50 | QAFLDELESSDLPVALLLAQHKDR [MNAT1] | 3.53 ± 0.13 | 3.49 ± 0.21 | – | –
51 | VLALEERFGVRPKVTGYLISYSSM [MFSD9] | 2.17 ± 0.53 | 1.95 ± 0.099 | – | –
52 | NFADEDEAQAFRALVQEKIQKRNQ [WAS] | 4.55 ± 0.29 | 4.62 ± 0.3 | – | –
53 | FNYELVKSWLNGFRPKDQTSVGMS [SLC25A39] | 1.95 ± 0.32 | 1.97 ± 0.3 | – | –
54 | LELLGASFANDRENYDIIKTYHYL [FEM1B] | 2.32 ± 0.43 | 2.17 ± 0.36 | – | –
55 | AGYRLGPAQPGADSSFPPALAEGY [TBX6] | 3.45 ± 0.38 | 3.62 ± 0.23 | – | –
56 | YWEAWRHHCQGKDLTEWVDGCDF [SPACA3] | – | – | 2.84 ± 0.15 | 3.04 ± 0.25
57 | KILISGLEPSTPYRFLLYGLHEGK [TNXB] | 2.75 ± 0.77 | 3.54 ± 2.4 | – | –
58 | NKQGHGCESDIWALGCVMYTMLLG [PLK2] | 2.87 ± 0.58 | 2.54 ± 0.064 | – | –
59 | FRIFIIWAISSWFRRGPAPQDQAG [CLPTM1] | 2.23 ± 0.2 | 1.87 ± 0.28 | – | –
60 | EWPEYFMAVAFLSAQRSKDPNSQV [DCTD] | 2.35 ± 0.26 | 2.06 ± 0.48 | – | –
61 | SLKRHLKTHTGEKPHRCHNCGKSF [ZNF449] | 2.91 ± 0.56 | 2.97 ± 0.15 | – | –
62 | EHGPSPGQDTFCQGKADGLYPNPR [CHIT1] | 4.38 ± 0.26 | 4.36 ± 0.53 | – | –
63 | AVMEHAESKMYATSPYSDPVVSMD [PTPRD] | 4.3 ± 0.36 | 4.24 ± 0.53 | – | –
64 | GGARSLWRGNGINVLKIAPESAIK [SLC25A25] | 3.29 ± 0.45 | 3.19 ± 0.47 | – | –
65 | KMKQLTEETEVLAHEIERLQMEMK [TRIM35] | 4.06 ± 0.55 | 3.63 ± 0.28 | – | –
66 | ASTVTEIVKQQDPLVYKAIQQGIN [ACSBG2] | 3.49 ± 0.3 | 3.96 ± 0.35 | – | –
67 | NPEEIRGGGLLKYSNLLVRDFRPT [TENT5C] | 3.04 ± 0.3 | 3.14 ± 0.31 | – | –
68 | DQSKLAGLLDLNNAILQLVKKYKS [ESRRG] | 2.4 ± 0.26 | 2.31 ± 0.5 | – | –
69 | TDRPLLSTLEESVVRICCIRSFGH [SMG5] | 2.36 ± 0.24 | 2.08 ± 0.12 | – | –

Row | Sequence | protein stability index [1] | protein stability index [2] | protein stability index (treatment: DMSO, c terminus: native) | protein stability index (treatment: MLN4924 1 uM, 8 h, c terminus: native)
70 | PNKDMVVQLIDDFKISGMNGIHVC [SRPK2] | 2.38 ± 0.27 | 2.35 ± 0.25 | – | –
71 | NHLLHHFVIGHLKGAPASWWNHMH [FADS1] | 2.36 ± 0.56 | 2.31 ± 0.34 | – | –
72 | DTDRDGYISHRELGDCMRTLGYMP [CABP4] | 3.41 ± 0.22 | 3.47 ± 0.26 | – | –
73 | EQNIIPSATNVTCYYQPAPYVSDG [TENT5C] | 3.43 ± 0.4 | 3.63 ± 0.32 | – | –
74 | LTLKVLRSSSCGDTELLGQATLPV [C2CD2L] | 2.16 ± 0.73 | 2.33 ± 0.34 | – | –
75 | IPAGARDIQIVERKKSADVLALAD [ADAMTSL2] | 4.68 ± 0.32 | 4.86 ± 0.38 | – | –
76 | ERRHREEKERRKKQQWEIMHKHNE [RSPH3] | 4.8 ± 0.23 | 4.65 ± 0.28 | – | –
77 | HGQLDDLIFIFYKNGLPSPERSYV [PPEF2] | 2.88 ± 0.41 | 2.35 ± 0.44 | – | –
78 | ARTQMILLRRSVEGASSDNGCEVK [PHTF1] | 3.68 ± 0.24 | 3.98 ± 0.2 | – | –
79 | GSEAAVIPLDLGCTQVTQDGDIPN [FAM189A2] | 5.05 ± 0.39 | 5.26 ± 0.5 | – | –
80 | DMWSIGVITYILLSGASPFLGETK [DAPK3] | 3.15 ± 0.3 | 2.97 ± 0.36 | – | –
81 | SSPRSVDSYSSTQHVPEELDLSSS [ATF6] | 5.29 ± 0.52 | 5.4 ± 0.24 | – | –
82 | KNIFGTPEFVAPEIVNYEPLGLEA [DAPK3] | 3.95 ± 0.23 | 4.26 ± 0.51 | – | –
83 | GRLAMDEIFQKPFQTLMFLVRDWS [ATL3] | 2.25 ± 0.55 | 2.09 ± 0.21 | – | –
84 | DPLLLILSFLDYRDLINCCYVSRR [FBXO3] | 2.91 ± 0.74 | 3.05 ± 0.82 | – | –
85 | LDLLSELYQKQPKIGYHLLYYLRA [INTS3] | 3.21 ± 0.65 | 2.74 ± 0.53 | – | –
86 | FLFQKPGDKYEHHSYMGMRGFCAF [POMT2] | 2.55 ± 0.75 | 1.99 ± 0.22 | – | –
87 | VSPGSPPPPLPNHKYNTTSTSYSP [PLAGL1] | 4.27 ± 0.15 | 4.21 ± 0.27 | – | –
88 | DTHSWKSELQREMEALAAETNLLL [TEKT4] | 3.25 ± 0.33 | 3.59 ± 0.44 | – | –
89 | IEGAPEVTMSSLFKHILRTEGAFG [SLC25A25] | 2.31 ± 0.39 | 2.63 ± 0.13 | – | –

Reference: the supplement of paper PMC10567573
